One substance from paper PMC3865438 can be followed below.

The assay has as its target cytochrome b6f complex from Chlamydomonas reinhardtii (Chlamydomonas reinhardtii) (UniProt Q00471). In words: crystal structure.

On to “cytochrome b6f complex from Chlamydomonas reinhardtii (from UniProt Q00471 1-215; P49728 30-206; P23230 1-160; P23577 32-317)”, for which the stoichiometry N (commonly the number of molecules, sites or subunits per partner or assembly) is 2.
